Experimental data: the supplement of paper PMC7877785
± gives the uncertainty stated by the source.

Assay: self-splicing fitness, log relative to wild type (ln ratio); higher = more splicing; Tetrahymena group I intron in knt gene, E. coli kanamycin selection, DiMSum; sequences stand for … in CUCUCU…GGAGGGAAAAGUUAUCAGGCAUGCACCUGGUAGCUAGUCUUUAAACCAAUAGAUUGCAUCGGUUUAAAAGGCAAGACCGUCAAAUUGCGGGAAAGGGGUCAACAGCCGUUCAGUACCAAGUCUCAGGGGAAACUUUGAGAUGGCCUUGCAAAGGGUAUGGUAAUAAGCUGACGGACAUGGUCCUAACCACGCAGCCAAGUCCUAAGUCAACAGAUCUUCUGUUGAUAUGGAUGCAGUUCACAGACUAAAUGUCGGUCGGGGAAGAUGUAUUCUUCUCAUAAGAUAUAGUCGGACCUCUCCUUAAUGGGAGCUAGCGGAUGAAGUGAUGCAACACUGGAGCCGCUGGGAACUAAUUUGUAUGCGAAAGUAUAUUGAUUAGUUUUGGAGUACUCGUGGUCG
Summary of the method: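 Fitness was computed with DiMSum as the error-weighted combination of replicate fold changes, kanamycin versus none, each normalised to wild type. The library randomised all eight intron nucleotides of the P1ex region, with the intron placed in the knt kanamycin-resistance gene on pET-22b(+) in E. coli BL21(DE3). Six replicate transformations were grown overnight at 37°C or 30°C on LB agar with or without 25 μg/mL kanamycin, plus 100 μg/mL carbenicillin, 50 μM IPTG and 0.2% rhamnose. Pooled colonies were amplicon-sequenced on an Illumina HiSeq 2500.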

## UCGUAGCAAUAUUACGUUAA
30 °C
  self-splicing fitness (ln): -1.59 ± 0.18
37 °C
  self-splicing fitness (ln): -1.16 ± 0.17

## UCGUAGCAAUAUUACGUUCA
30 °C
  self-splicing fitness (ln): -1.39 ± 0.097
37 °C
  self-splicing fitness (ln): -0.421 ± 0.11

## UCUAAGCAAUAUUACGACAC
30 °C
  self-splicing fitness (ln): -3.7 ± 0.18
37 °C
  self-splicing fitness (ln): -2.82 ± 0.17

## UCUAAGCAAUAUUACGACUG
30 °C
  self-splicing fitness (ln): -0.955 ± 0.17
37 °C
  self-splicing fitness (ln): -0.205 ± 0.23

## UCUAAGCAAUAUUACGAGUU
30 °C
  self-splicing fitness (ln): -2.94 ± 0.2
37 °C
  self-splicing fitness (ln): -3.27 ± 0.28

## UCUAAGCAAUAUUACGAUAG
30 °C
  self-splicing fitness (ln): -1.15 ± 0.07
37 °C
  self-splicing fitness (ln): -0.499 ± 0.1

## UCUAAGCAAUAUUACGAUAU
30 °C
  self-splicing fitness (ln): -3.99 ± 0.4
37 °C
  self-splicing fitness (ln): -2.61 ± 0.34

## UCUAAGCAAUAUUACGAUCU
30 °C
  self-splicing fitness (ln): -3.07 ± 0.23
37 °C
  self-splicing fitness (ln): -2.08 ± 0.2

## UCUAAGCAAUAUUACGAUGC
30 °C
  self-splicing fitness (ln): -3.03 ± 0.18
37 °C
  self-splicing fitness (ln): -2.28 ± 0.21

## UCUAAGCAAUAUUACGCAUU
30 °C
  self-splicing fitness (ln): -2.92 ± 0.21
37 °C
  self-splicing fitness (ln): -2.83 ± 0.28

## UCUAAGCAAUAUUACGCCUG
30 °C
  self-splicing fitness (ln): -1.6 ± 0.13
37 °C
  self-splicing fitness (ln): -1.14 ± 0.2

## UCUAAGCAAUAUUACGCCUU
30 °C
  self-splicing fitness (ln): -3.44 ± 0.36
37 °C
  self-splicing fitness (ln): -2.32 ± 0.27

## UCUAAGCAAUAUUACGCGUU
30 °C
  self-splicing fitness (ln): -4.04 ± 0.34
37 °C
  self-splicing fitness (ln): -2.77 ± 0.38

## UCUAAGCAAUAUUACGGCUU
30 °C
  self-splicing fitness (ln): -4.01 ± 0.37
37 °C
  self-splicing fitness (ln): -1.22 ± 0.26

## UCUAAGCAAUAUUACGGGCU
30 °C
  self-splicing fitness (ln): -4.19 ± 0.4
37 °C
  self-splicing fitness (ln): -1.84 ± 0.3

## UCUAAGCAAUAUUACGGGGC
37 °C
  self-splicing fitness (ln): -2.21 ± 0.32

## UCUAAGCAAUAUUACGGUAA
30 °C
  self-splicing fitness (ln): -3.48 ± 0.36
37 °C
  self-splicing fitness (ln): -1.33 ± 0.19

## UCUAAGCAAUAUUACGUGUA
30 °C
  self-splicing fitness (ln): -1.6 ± 0.12
37 °C
  self-splicing fitness (ln): -0.704 ± 0.1

## UCUAAGCAAUAUUACGUGUU
30 °C
  self-splicing fitness (ln): -3.44 ± 0.14
37 °C
  self-splicing fitness (ln): -2.81 ± 0.13

## UCUAAGCAAUAUUACGUUCU
30 °C
  self-splicing fitness (ln): -3.14 ± 0.22
37 °C
  self-splicing fitness (ln): -1.47 ± 0.14

## UCUAAGCAAUAUUACGUUUA
37 °C
  self-splicing fitness (ln): -1.69 ± 0.37

## UCUCAGCAAUAUUACGAAUG
30 °C
  self-splicing fitness (ln): -1.73 ± 0.15
37 °C
  self-splicing fitness (ln): -1.85 ± 0.26

## UCUCAGCAAUAUUACGACCG
37 °C
  self-splicing fitness (ln): -1.07 ± 0.47

## UCUCAGCAAUAUUACGAUCA
30 °C
  self-splicing fitness (ln): -0.104 ± 0.17
37 °C
  self-splicing fitness (ln): -0.219 ± 0.17

## UCUCAGCAAUAUUACGAUGC
30 °C
  self-splicing fitness (ln): -3.28 ± 0.28
37 °C
  self-splicing fitness (ln): -2.55 ± 0.27

## UCUCAGCAAUAUUACGCAGG
30 °C
  self-splicing fitness (ln): -4.14 ± 0.42
37 °C
  self-splicing fitness (ln): -2.28 ± 0.25

## UCUCAGCAAUAUUACGGAUA
30 °C
  self-splicing fitness (ln): -1.12 ± 0.16
37 °C
  self-splicing fitness (ln): 0.0308 ± 0.15

## UCUCAGCAAUAUUACGGAUC
30 °C
  self-splicing fitness (ln): -3.82 ± 0.32
37 °C
  self-splicing fitness (ln): -1.52 ± 0.13

## UCUCAGCAAUAUUACGGCGG
30 °C
  self-splicing fitness (ln): -2.46 ± 0.16
37 °C
  self-splicing fitness (ln): -1.01 ± 0.18

## UCUCAGCAAUAUUACGGCUG
30 °C
  self-splicing fitness (ln): -2.11 ± 0.13
37 °C
  self-splicing fitness (ln): -2.21 ± 0.28

## UCUCAGCAAUAUUACGGGCG
30 °C
  self-splicing fitness (ln): -0.717 ± 0.08
37 °C
  self-splicing fitness (ln): -0.262 ± 0.12

## UCUCAGCAAUAUUACGGGUA
30 °C
  self-splicing fitness (ln): -0.605 ± 0.11
37 °C
  self-splicing fitness (ln): -0.0376 ± 0.11

## UCUCAGCAAUAUUACGGUAC
30 °C
  self-splicing fitness (ln): -3.18 ± 0.35
37 °C
  self-splicing fitness (ln): -2.52 ± 0.34

## UCUCAGCAAUAUUACGGUGC
30 °C
  self-splicing fitness (ln): -3.17 ± 0.24
37 °C
  self-splicing fitness (ln): -3.08 ± 0.23
